The results in this text go back to a protein production outcome set (Wang et al. 2014).

The nature of this data set: label from the status in PepcDB records.
Consider “MPTNAGTSLSSYKHIVAIGTTVKSESLESAAYEIPRKRKMRSDSAAVSGNSVSTPKKLKSHLPSSVPNPGMSEKEVVEDSNEILRYPVNLAVSDCLGTKSKWSPRDEEQMRAVKEALHVSKAPSTILCREDEQIRIFEFVKGCIDQQKAGSLYICGCPGTGKSLSMEKVVQQVGDWSTQAGLPPVDTLSVNCTSLSKTTDIFSKILGEIKPGKNANTNSSPLQHLQNLFSQKQESSSSRMMLIIADEMDYLITKDRGVLYDLFMLTTLPFSRCILIGVANAIDLADRFLPKLKSLNCKPMVITFRAYSKDQILRILQERLRVLSYVAFQPKALELCARKVAAASGDMRKALCVCRSALEILEIETRGSTGPESQGPTPDDSVVRMDHMAAALSKTFKSPVVETIQSLPQHQQIIICAAAKAFRGSKKDATVGELNKLYLEICKSWMISPAGITEFTNMCTVLNDQGILKVGQARRDKLKRVSLRVDESDITFALQVNSLFILFFANP”, for which the protein production result is on record as “failed”.

On to “MPVDLQALYPRLIHLMLDTVFVVDRDNQIVFVSDACKTLLGYEACELIGTPITRYMHPDDLAATRASIMRVMNGQPHYDFCNRYLRKDGSVVHILWAACWSEEAQARIGVARDVTAQRKAEDELRFLAHHDPLTRLANRAMFNERLDTALAAARRHNRRLALLFLDINDFKQINDNHGHSVGDRVLCTLARRLERCVGAAGTVARMGGDEFTVLLPDCPSPEAIATHVQHILAVMAEPLDAEFAGIDAPSCSIGVARFPEDGNDADMLLRHADGHMYRIKRQRAATG”, for which the protein production result is given as “failed”.

Take “MPVIHCNKDDSQEASSQTPFLPLGFVFTKLYICLTIYSGGDDESMDGDINKYLVLAIIGVGGLSGLVASQSTGRNFPPATANKTVGR”: the protein production result is “failed”.

On to “MPVKLATALSNNLFPALDSQLRAGRHIGIEELENHVFLMDFQEVLEEFYSRYNVELIRAPEGFFYLRPRSTTLIPRSVLSELDMMVGKILCYLYLSPERLAHEGIFSQQELYEELLSLADESKLLKLVNQRSTGSDLDRQKLQEKVRTSLNRLRRLGMIYFMGNDSSKFRITESVFRFGADVRSGDDAREAQLRMIRDGEAMPVEGSLSLKDDSDDNDRTDDTAPETGEDELEHHHHHH”, for which the protein production result is “failed”.

“MPVLVASDLDRTLIYSAAALGLTMPDLRAPRLLCVEVYESKPLSYLTETAAQLLTDLGDSALFVPTTTRTRKQYQRINLPGPAPKYAICANGGHLLVDGVSDPGWHARVTARLADECASLAEVRDHLTNTADPLWVRKHRVAEDLFAYLVVERDLLPQDWVKELAVWAENRGWTVSLQGRKIYAVPKPLTKSAAMHEVARRTGAELTLAAGDSLLDADLLLAADRGWRPGHGELADSGWTAPTISALPERGVLAGERILREFLRAVRPAR”: the protein production entry is reported as “failed”.

With “MPVNQYQQEVGETLEHFAVGQMPDVKFLEGRYCSVEHIDARKHLNDIIDFYWKNAVPSDWTYMFDQPFETAEAVQERLQDYEKSENPYFFAIRDKETDKVLGTFSLMRIDPKNRVLEMGRVIYAPALQKTSAATEAQYLVMNYVFENLGYRRYEWKCDHLNQSSGNAAKRLGFTYEGTFRKHVVYKGRTRDTDWFSVIDQDWPKLKKRFENWLSPKNFDKTGQQIKALKDC”, the protein production entry was “failed”.

With “MPVQNRIHKGINMNSYAHLNVEKRGHTAVVTIDNPPANTWNRASLTALKQLVADLNADRDIYALVITGQGEKFFSAGADLNLFADGDKKVATEMTLLFGEAFEALSAFRGVSIAAINGYAMGGGLECALACDIRIAEEQAQMALPEAGVGLLPCAGGTQNLPWLVGEGWAKRMILCGERVNAATAERIGLVEQVVAKGEALAAALKLAEGVARQSPSSVGVCKQLVQAARTQPPAWNLIKEREAFIKLFDTQDQAEGTRAFLEKRAPNWKNA”, the protein production result is listed as “failed”.

Turning to “MPVQTYPVDIVIRAYDRPGLLRDVSQVLLNEKINVLAVNTRSNKEDNTALMSLTIEIPGLDALGRLLGRISQLPNIIETRRNRTPLEHHHHHH”, the protein production result is on record as “failed”.

As to “MPVRASIEPLTWENAFFGVNSAIVRITSEAPLLTPDALAPWSRVQAKIAASNTGELDALQQLGFSLVEGEVDLALPVNNVSDSGAVVAQETDIPALRQLASAAFAQSRFRAPWYAPDASGRFYAQWIENAVRGTFDHQCLILRAASGDIRGYVSLRELNATDARIGLLAGRGAGAELMQTALNWAYARGKTTLRVATQMGNTAALKRYIQSGANVESTAYWLYR”, the protein production entry is on record as “not failed”.

As to “MPVTDVKHDLDTLTLTITAEFAAPVTRIWQIYADPRQLEKVWGPPSHPATVVDHDLRPGGRVTYFMTGPDGEKYAGYWEITAVDEPHSFSFLDGFADEDFNPNTDLPVSTNVYTFTEHDGGTRATYVGTYASAEALQQVLDMGVIEGASSAINQIDALLTA”, the protein production result is “failed”.

As to “MPVTEKDLAEDAPWKKIQQNTFTRWCNEHLKCVNKRIGNLQTDLSDGLRLIALLEVLSQKRMYRKYHQRPTFRQMQLENVSVALEFLDRESIKLVSIDSKAIVDGNLKLILGLVWTLILHYSISMPVWEDEGDDDAKKQTPKQRLLGWIQNKIPYLPITNFNQNWQDGKALGALVDSCAPGLCPDWESWDPQKPVDNAREAMQQADDWLGVPQVITPEEIIHPDVDEHSVMTYLSQF”, the protein production result is on record as “failed”.

Turning to “MPYKLTLEACTKCGTCAEACTMYLGSGRKKIYSPVYRSDMLRKIYKKHFTLTGKLFGPLIGAKDPTEDDINALAESAYRCTVCRRCALACPFGLDNGLITRETRKIFADLGILEHHHHHH”, the protein production entry is reported as “not failed”.

With “MPYLPEVIIILVLIALNGIFAMSEFALVSAKKIRLRQKAEKGDAGAETALKLSNEPTAFLSTVQIGITLVGIFAGAFGGATIAGELDTYLRDFPALARYSATLSITLVVLIITYLTLILGELVPKQLALNNAETIASRVAKPMFFLSLMARPLVLVLSYSTDAVLRLLRVRKIIGPPVTEEEIKIMIEEGTEAGVFERAEMSMIEGVFDIGDRRVESLMTHRSDIIALDLDDPVDENLKKMIASGRSNFPVYERDLDDVIGIVSVKDVLAKLVESGKVDIRASVTKPLFAPEAITILKLLESFKETGMHIALITDEYGSVQGIITLHDILEAIVGDVRSLGEPEEEQITVLENGSWLIDGDTPVNKLKYVLSVDSFPGEEQGYYLTIAGLIMYILQRIPKTGDHMEFNGLRYEVVDMDGIRIDKVMVTKVPEISKD”, the protein production entry is given as “not failed”.

With “MQAGSMSAPKQLVIIGAGEFAQIACEYFQHDSHYTVVAFSVERDFLLQHTLAELPVVAYEELEQRYPPEQYEVFVAIPATRLNRLRTRFFQDVVQRGYRCATYVSSRAFVWHNAQIGANCFIFEGNVIQPFTRIGDNCVLWSGNHIGHRTAVRDHVFIASHAVISGYCEIGQGSFIGVNATLSDKVHIAANNIIGAGALVTRHTEAERVYVGSPARAVAGRSSFDVEL”, the protein production result was “failed”.

On to “MQAKLRLWLTFCVVTPVLLLFGNAGLAEQTPAPKVLKPVTSKAVGVTPRGQVLSLSCSSCHGTDGKSVGIMPSFYGKTPQYIETALLEFKSGKRYSTVMGRHAKGYSDDEIHLIAQYCGIKGQKTK”, for which the protein production entry is given as “failed”.

As to “MQAMTERLEAMLAQGTDNMLLRFTLGKTYAEHEQFDAALPHLRAALDFDPTYSVAWKWLGKTLQGQGDRAGARQAWESGLAAAQSRGDQQVVKELQVFLRRLAREDALEHHHHHH”, the protein production entry is listed as “not failed”.

With “MQARLSGTSIGLTGPAATKLVRLSRAIEWMSTIGIVLIVGLIGAVFLVPSWTRNLLLTKLGEIGTRLPLDAGNQALAAVIITVPVAVMLWGLVNVRALFAEFARGQVFTTTAATYLQRFGIAVLAQGLLGPVTATALALALSLSNPPGQRLLVLTFSSNDYVSVIVGGVLVAVAAVMREAARLADENASFV”, the protein production result was “failed”.

Consider “MQARWIGNMMFHVRTDSNHDVLMDTKEEVGGKDAAPRPLELVLTGLMGCTGMDVVSILRKMKVIDQMKDFRIEIEYERTEEHPRIFTKVHLKYIFKFDGEPPKDKVEKAVQLSQEKYCSVSAILKCSSKVTYEIVYEN”, for which the protein production entry was “not failed”.
